B1: library; numbered along this chain (parent)
chain: MRKPRAAVGSGHRKQAASQEGRQKHAKNNSQAKPSACDGLARQPEEVVLQASVSSYHLFRDVAEVTAFRGSLLSWYDQEKRDLPWRRRAEDEMDLDRRAYAVWVSEVMLQQTQVATVINYYTGWMQKWPTLQDLASASLEEVNQLWAGLGYYSRGRRLQEGARKVVEELGGHMPRTAETLQQLLPGVGRYTAGAIASIAFGQATGVVDGNVARVLCRVRAIGADPSSTLVSQQLWGLAQQLVDPARPGDFNQAAMELGATVCTPQRPLCSQCPVESLCRARQRVEQEQLLASGSLSGSPDVEECAPNTGQCHLCLPPSEPWDQTLGVVNFPRKASRKPPREESSATCVLEQPGALGAQILLVQRPNSGLLAGLWEFPSVTWEPSEQLQRKALLQELQRWAGPLPATHLRHLGEVVHTFSHIKLTYQVYGLALEGQTPVTTVPPGARWLTQEEFHTAAVSTAMKKVFRVYQGQQPGTCMGSKRSQVSSPCSRKKPRMGQQVLDNFFRSHISTDAHSLNSAAQ

Variants of: B1
Experiment: 8OG:A repair function score (normalized; synonymous = 0, nonsense = -1) (normalized log-likelihood score); higher = more repair activity (WT-like)
Details: with 8OG:A DNA repair reporter (GFP) in HEK-293 MUTYH KO cells
How it was run: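 Lentiviral MUTYH cDNA NNN codon-scan libraries in HEK-293 MUTYH knockout cells (10 pg/ml doxycycline) were co-transfected with an 8OG:A GFP repair reporter plus mCherry. At 72 h, viable mCherry+ cells were sorted into GFP+ (repair) and GFP− bins, three replicates per tile, then tile amplicons were sequenced. Per-tile Rosace fitness scores became a normalized repair function score anchored on synonymous and nonsense distributions. Synonymous medians were set to 0 and nonsense to -1; variants under 300 counts per million at the start were removed.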

8OG:A repair function score: each site, then its substitutions
A305: I 0.00729; H -0.0126; L -0.00389; M -0.0121; Y 0.000265; T -0.034; W -0.0242; Q -0.0168; P -0.125; N 0.00434; R -0.0332; E -0.0473; V -0.0191; C -0.0298; K -0.0297; F -0.0551; S -0.019; D -0.0865; G -0.0138
G309: T -0.00848; H 0.0104; V -0.0173; R -0.0133; I -0.145; M -0.0498; W -0.149; S -0.0582; D -0.000739; A -0.0354; K -0.0254; F 0.0213; Q -0.105; N -0.0326; P -0.0923; E 0.02; C -0.165; L -0.0772; Y -0.0852
P306: K -0.0963; R -0.0125; Q 0.0003; F -0.0382; W -0.009; S -0.0289; C -0.044; T -0.00972; E -0.0828; M -0.0214; I -0.0314; G -0.0173; D -0.0656; A -0.0211; V -0.015; N -0.00787; H -0.0537; L -0.00346; Y -0.0217
Q310: T 0.0177; D 0.0119; L -0.0215; V -0.0252; A -0.00829; R -0.0435; F -0.0295; N 0.00143; E -0.0263; C 0.0147; Y -0.0597; W -0.0199; G -0.0488; H -0.0309; S -0.0462; K -0.0227; M -0.0144; I 0.0174; P -0.0353
T308: V -0.00366; S -0.000367; L -0.0193; Y -0.0509; K -0.0882; P -0.0519; W 0.00192; H -0.0553; E -0.0446; D -0.0467; M -0.0648; A 0.0246; N 0.0456; I -0.0904; Q 0.0017; G -0.0427; R 0.0174; F -0.0849; C -0.00889
C304: H -0.403; R -0.464; N -0.439; L -0.16; V -0.331; E -0.556; G -0.343; S -0.289; W -0.296; Y -0.341; A -0.225; K -0.535; T -0.454; F -0.29; P -0.398; I -0.257; D -0.518; Q -0.421; M -0.303
N307: D 0.0758; R -0.00117; S -0.00118; W -0.0672; I -0.0284; T -0.07; G -0.0226; L -0.079; Y -0.0923; P -0.0382; H -0.0535; Q -0.00475; A -0.0752; V 0.0207; F -0.00176; M -0.145; E -0.0119; C -0.119; K -0.0345
H312: D -0.0268; C -0.0404; E 0.0205; F -0.000263; G -0.0894; A -0.0906
C311: N -0.628; Q -0.575; D -0.559; I -0.59; K -0.39; S -0.588; R -0.481; M -0.621; E -0.757; L -0.479; H -0.471; Y -0.394; W -0.459; P -0.312; F -0.55; V -0.634; A -0.544; G -0.505; T -0.566
E303: Q 0.0405; T -0.0474; R -0.0675; V -0.0344; P -0.218; S -0.0938; Y -0.231; W -0.175; N -0.0416
